Molecular target: T1, mouse CD80-Fc fusion protein (mouse, UniProt Q00609 38-246)
T1 sequence: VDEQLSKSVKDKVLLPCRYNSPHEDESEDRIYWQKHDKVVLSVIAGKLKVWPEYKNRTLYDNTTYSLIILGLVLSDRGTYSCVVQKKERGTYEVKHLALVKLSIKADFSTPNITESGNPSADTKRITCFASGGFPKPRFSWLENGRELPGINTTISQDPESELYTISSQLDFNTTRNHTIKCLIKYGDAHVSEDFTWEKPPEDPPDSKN
Experiment: SPR

B1: Mouse CD28 protein with His tag (receptor)
chain: NKILVKQSPLLVVDSNEVSLSCRYSYNLLAKEFRASLYKGVNSDVEVCVGNGNFTYQPQFRSNAEFNCDGDFDNETVTFRLWNLHVNHTDIYFCKIEFMYPPPYLDNERSNGTIIHIKEKHLCHTQSSPKL
Kd: 2490 nM
